Source: IntAct's records for PubMed 36577757

Assays:
mrtfa_human MRTFA [1] = molecular target: mrtfa_human MRTFA (UniProt Q969V6)
mrtfa_human MRTFA [2] = molecular target: mrtfa_human MRTFA (UniProt Q969V6); remark: listed apart in the source

Sequence of UniProt Q969V6 (Q969V6 whole entry): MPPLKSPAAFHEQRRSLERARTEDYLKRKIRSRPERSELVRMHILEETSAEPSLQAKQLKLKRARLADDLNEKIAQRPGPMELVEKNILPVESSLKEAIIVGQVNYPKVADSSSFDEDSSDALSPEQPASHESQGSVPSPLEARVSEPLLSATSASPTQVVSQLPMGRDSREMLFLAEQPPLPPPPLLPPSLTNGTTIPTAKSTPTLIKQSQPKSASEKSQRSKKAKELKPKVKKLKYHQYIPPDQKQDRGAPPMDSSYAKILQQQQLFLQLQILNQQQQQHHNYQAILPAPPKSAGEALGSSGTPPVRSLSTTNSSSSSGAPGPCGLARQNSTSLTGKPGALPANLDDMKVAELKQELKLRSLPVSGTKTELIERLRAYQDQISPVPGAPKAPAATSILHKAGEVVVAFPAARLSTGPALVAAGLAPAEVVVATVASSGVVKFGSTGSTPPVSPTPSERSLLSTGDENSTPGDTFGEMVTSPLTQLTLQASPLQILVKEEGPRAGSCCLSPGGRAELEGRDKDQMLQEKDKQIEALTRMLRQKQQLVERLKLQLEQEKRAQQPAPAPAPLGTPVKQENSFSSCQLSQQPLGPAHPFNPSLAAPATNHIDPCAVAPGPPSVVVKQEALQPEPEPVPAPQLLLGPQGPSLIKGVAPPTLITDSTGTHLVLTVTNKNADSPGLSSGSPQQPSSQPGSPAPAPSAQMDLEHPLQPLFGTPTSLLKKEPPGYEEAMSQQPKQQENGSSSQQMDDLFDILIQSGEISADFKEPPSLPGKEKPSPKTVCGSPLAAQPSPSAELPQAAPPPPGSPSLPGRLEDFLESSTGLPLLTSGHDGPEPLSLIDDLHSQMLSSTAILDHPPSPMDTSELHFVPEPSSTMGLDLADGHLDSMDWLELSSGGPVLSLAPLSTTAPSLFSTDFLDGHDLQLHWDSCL

Filamin-A (Homo sapiens), P21333 S2152A
effect of a mutation on the interaction (mrtfa_human MRTFA [1]): disrupting interaction strength
effect of a mutation on the interaction (mrtfa_human MRTFA [2]): decreasing interaction strength
